According to patent US20120034693A1:

Key:
[1] = biological target: mutant A3G D128K, cmyc-tagged, expressed from pD3GFPD128K / D3GFPD128K (human) (UniProt Q9HC16); experiment: cell-based or functional assay
[2] = biological target: wild type Apolipoprotein B mRNA-editing enzyme-catalytic polypeptide-like 3G (A3G), cmyc-tagged, expressed from pD3GFP / D3GFP (human) (UniProt Q9HC16); experiment: cell-based or functional assay

**Q.** “HIV-1 viral infectivity factor (Vif), expressed from the helper plasmid pcHelp” was tested. Which infectivity of HIV-GFP virus produced from vector-carrying 293T cells in the presence of HIV-1 Vif, percent of control [1] did it give?
**A.** The infectivity of HIV-GFP virus produced from vector-carrying 293T cells in the presence of HIV-1 Vif, percent of control was 1 % of control.

**Q.** What about the inhibition of HIV-GFP replication by the A3G-expressing plasmid in the presence of HIV-1 Vif (GFP flow cytometry of infected 293T cells) [1] of the same substance?
**A.** Its inhibition of HIV-GFP replication by the A3G-expressing plasmid in the presence of HIV-1 Vif (GFP flow cytometry of infected 293T cells) is 90%.

**Q.** What about the infectivity of HIV-GFP virus produced from vector-carrying 293T cells in the presence of HIV-1 Vif, percent of control [2] of the same substance?
**A.** Its infectivity of HIV-GFP virus produced from vector-carrying 293T cells in the presence of HIV-1 Vif, percent of control is 89 % of control.
